In patent US11130803B2, “Isoform-selective TGFβ1 inhibitors and use thereof” (Scholar Rock, Inc., priority 2018, dated 2021):
Substitutions are numbered along the chain they refer to.

B1: Ab22: monoclonal antibody; VH SEQ ID NO: 130, VL SEQ ID NO: 15 (antibody, V domains shown)
VH: EVQLVESGGGLVQPGGSLRLSCAASGFTFGSFSMNWVRQAPGKGLEWVSYIHSDASTIYYADSVKGRFTISRDNAKNSLYLQMNSLRAEDTAVYYCARGVLDYGDMLDPWGQGTLVTVSS
VL: DIQMTQSPSSLSASVGDRVTITCQASQDITNYLNWYQQKPGKAPKLLIYDASNLETGVPSRFSGSGSGTDFTFTISSLQPEDIATYYCQQADNHPPWTFGGGTKVEIK
B2: Ab31: monoclonal antibody; VH SEQ ID NO: 139, VL SEQ ID NO: 15 (antibody, V domains shown)
VH: B1 VH with G30S, N35D, H52S, S53P, S78T, G99A
VL: B1 VL
B3: Ab26: monoclonal antibody; VH SEQ ID NO: 134, VL SEQ ID NO: 15 (antibody, V domains shown)
VH: B1 VH with G30S, N35D, H52S, S53P, S78T
VL: B1 VL
B4: Ab29: monoclonal antibody; VH SEQ ID NO: 137, VL SEQ ID NO: 15 (antibody, V domains shown)
VH: B1 VH with G16R, G30S, S33A, H52S, S53P, D62G, A97V, G99A
VL: B1 VL
B5: Ab24: monoclonal antibody; VH SEQ ID NO: 132, VL SEQ ID NO: 15 (antibody, V domains shown)
VH: B1 VH with G16R, G30S, S33A, N35Y, H52S, S53P
VL: B1 VL
B6: Ab30: monoclonal antibody; VH SEQ ID NO: 138, VL SEQ ID NO: 15 (antibody, V domains shown)
VH: B1 VH with G30S, N35D, H52S, S53P, V100T
VL: B1 VL
B7: Ab32: monoclonal antibody; VH SEQ ID NO: 140, VL SEQ ID NO: 15 (antibody, V domains shown)
VH: B1 VH with G30S, H52S, S53P, D54S, S56D, S78T, L101W, Y103M
VL: B1 VL
B8: Ab11: monoclonal antibody; VH SEQ ID NO: 239, VL SEQ ID NO: 241 (antibody, V domains shown)
VH: EVQLLESGGGLVQPGGSLRLSCAASGFTFRNYAMSWVRQAPGKGLEWVSSISGSGGATYYADSVKGRFTISRDNSKNTLYLQMNSLRAEDTAVYYCARVSSGHWDFDYWGQGTLVTVSS
VL: DIQLTQSPSSLSASVGDRVTITCRASQSISSYLNWYQQKPGKAPKLLIYAASNLQSGVPSRFSGSGSGTDFTLTISSLQPEDFATYYCQQTYTVPLTFGGGTKVEIK
B9: Ab20: monoclonal antibody; VH SEQ ID NO: 251, VL SEQ ID NO: 241 (antibody, V domains shown)
VH: B8 VH with R30S, N31A, S35T, S50A, A57V, F106Y
VL: B8 VL

What follows are molecules tested against T1, recombinant human GARP-proTGFβ1 complex (Homo sapiens, UniProt P01137) (assay: Octet (Biolayer Interferometry) in vitro kinetic binding). Conditions: in M.
T1 construct: made in house
T1 sequence (P01137 30-390): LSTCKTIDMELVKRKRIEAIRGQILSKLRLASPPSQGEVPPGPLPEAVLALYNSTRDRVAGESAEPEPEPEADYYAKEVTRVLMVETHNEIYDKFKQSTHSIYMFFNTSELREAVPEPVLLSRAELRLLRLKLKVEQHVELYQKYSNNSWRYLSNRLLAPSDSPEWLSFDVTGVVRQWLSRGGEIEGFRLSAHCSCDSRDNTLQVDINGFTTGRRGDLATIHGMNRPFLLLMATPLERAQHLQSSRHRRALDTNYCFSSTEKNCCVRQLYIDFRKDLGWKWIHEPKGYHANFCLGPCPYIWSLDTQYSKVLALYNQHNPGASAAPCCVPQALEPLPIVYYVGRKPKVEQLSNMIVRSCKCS
T1 sequence (Q14392 20-627 partner limits assumed): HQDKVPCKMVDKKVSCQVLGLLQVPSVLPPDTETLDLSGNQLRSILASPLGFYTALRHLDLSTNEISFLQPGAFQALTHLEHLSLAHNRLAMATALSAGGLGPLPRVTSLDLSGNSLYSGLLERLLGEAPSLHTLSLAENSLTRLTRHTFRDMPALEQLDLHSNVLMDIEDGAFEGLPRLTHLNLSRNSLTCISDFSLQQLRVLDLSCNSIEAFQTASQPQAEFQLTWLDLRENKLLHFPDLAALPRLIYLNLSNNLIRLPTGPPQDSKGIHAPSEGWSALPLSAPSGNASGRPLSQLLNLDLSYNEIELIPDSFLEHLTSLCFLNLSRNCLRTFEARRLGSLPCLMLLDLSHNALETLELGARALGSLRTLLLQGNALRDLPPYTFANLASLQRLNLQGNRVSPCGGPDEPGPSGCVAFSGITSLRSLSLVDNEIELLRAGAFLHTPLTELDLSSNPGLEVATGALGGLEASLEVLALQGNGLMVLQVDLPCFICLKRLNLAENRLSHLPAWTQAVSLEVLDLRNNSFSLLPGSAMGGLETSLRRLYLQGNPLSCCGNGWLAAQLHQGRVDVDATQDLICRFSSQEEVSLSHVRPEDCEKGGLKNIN
From the text: (§1) Biolayer Interferometry (BLI):BLI is a label-free technology for optically measuring biomolecular interactions, e.g., between a ligand immobilized on the biosensor tip surface and an analyte in solution. BLI provides the ability to monitor binding specificity, rates of association and dissociation, or concentration, with precision and accuracy. BLI platform instruments are commercially available, for example, from ForteBio and are commonly referred to as the Octet® System.
(§2) BLI-based binding assays are widely used in the art for measuring affinities and kinetics of antibodies to antigens. It is a label-free technology in which biomolecular interactions are analyzed on the basis of optical interference. One of the proteins, for example, an antibody being tested, can be immobilized on the biosensor tip. When the other protein in solution, for example, an antigen, becomes bound to the immobilized antibody, it causes a shift in the interference pattern, which can be measured in real-time. This allows the monitoring of binding specificity, rates of association and dissociation, as well as concentration dependency. […] Due to its ease of use and fast results, BLI-based assays such as the Octet® system (available from ForteBio/Molecular Devices, Fremont Calif.), are particularly convenient when used as an initial screening method to identify and separate a pool of “binders” from a pool of “non-binders” or “weak binders” in the screening process.
(§3) Table 8 below provides non-limiting examples of high-affinity, context-independent proTGFβ1 antibodies encompassed by the present invention. The table provides representative results from in vitro binding assays, as measured by Octet®.
(§4) Column (A) of the table lists monoclonal antibodies with discrete amino acid sequences. […] Columns (B), (D), (E) and (F) provide affinities of each of the listed antibodies, measured in KD. […] Average KD values of (B) and (C) are shown in the corresponding column (D), which collectively represents affinities of the antibodies to ECM- or matrix-associated proTGFβ1 complexes. Similarly, Average KD values of (E) and (F) are shown in the corresponding column (G), which collectively represents affinities of the antibodies to cell-surface or cell-associated proTGFβ1 complexes. Finally, relative ratios between the average KD values from columns (D) and (G) are expressed as “fold bias” in column (H). Thus, the greater the number of column (H) is, the greater bias exists for the particular antibody, when comparing binding preferences of the antibody for matrix-associated complexes and cell-surface complexes. This is one way of quantitatively representing and comparing inherent bias of antibodies to their target complexes. Such analyses may be useful in guiding the selection process for a candidate antibody for particular therapeutic use.
(§5) In some embodiments, the binding affinity of an antibody, or antigen binding portion thereof, to an antigen (e.g., protein complex), such as presenting molecule-proTGFβ1 complexes, is determined using an Octet assay. In some embodiments, an Octet assay is an assay that determines one or more a kinetic parameters indicative of binding between an antibody and antigen. In some embodiments, an Octet® system (ForteBio, Menlo Park, Calif.) is used to determine the binding affinity of an antibody, or antigen binding portion thereof, to presenting molecule-proTGFβ1 complexes. For example, binding affinities of antibodies may be determined using the fortéBio Octet QKe dip and read label free assay system utilizing bio-layer interferometry. In some embodiments, antigens are immobilized to biosensors (e.g., streptavidin-coated biosensors) and the antibodies and complexes (e.g., biotinylated presenting molecule-proTGFβ1 complexes) are presented in solution at high concentration ([…]) to measure binding interactions. […]
B1 was tested, and the “(E) hGARP, Cell-associated proTGFb1 (KD)” value was 9.74E−10. With B2 the “(E) hGARP, Cell-associated proTGFb1 (KD)” value was 5.81E−10. For B3, the “(E) hGARP, Cell-associated proTGFb1 (KD)” value was 6.25E−10. In the case of B4, the “(E) hGARP, Cell-associated proTGFb1 (KD)” value is reported as 3.07E−10. With B5 the “(E) hGARP, Cell-associated proTGFb1 (KD)” value was 6.65E−10. For B6, the “(E) hGARP, Cell-associated proTGFb1 (KD)” value was 8.33E−10. B7 was tested, and the “(E) hGARP, Cell-associated proTGFb1 (KD)” value was 4.96E−10. In the case of B8, the “(E) hGARP, Cell-associated proTGFb1 (KD)” value is reported as 8.42E−10. For B9, the “(E) hGARP, Cell-associated proTGFb1 (KD)” value was 8.84E−10.

The molecules below were run against T2, recombinant human LRRC33-proTGFβ1 complex (Homo sapiens, UniProt P01137) in the same assay as above. Conditions: in M.
T2 construct: made in house
T2 sequence (P01137 30-390): as the sequence (P01137 30-390) above
T2 sequence (Q86YC3 19-650 partner limits assumed): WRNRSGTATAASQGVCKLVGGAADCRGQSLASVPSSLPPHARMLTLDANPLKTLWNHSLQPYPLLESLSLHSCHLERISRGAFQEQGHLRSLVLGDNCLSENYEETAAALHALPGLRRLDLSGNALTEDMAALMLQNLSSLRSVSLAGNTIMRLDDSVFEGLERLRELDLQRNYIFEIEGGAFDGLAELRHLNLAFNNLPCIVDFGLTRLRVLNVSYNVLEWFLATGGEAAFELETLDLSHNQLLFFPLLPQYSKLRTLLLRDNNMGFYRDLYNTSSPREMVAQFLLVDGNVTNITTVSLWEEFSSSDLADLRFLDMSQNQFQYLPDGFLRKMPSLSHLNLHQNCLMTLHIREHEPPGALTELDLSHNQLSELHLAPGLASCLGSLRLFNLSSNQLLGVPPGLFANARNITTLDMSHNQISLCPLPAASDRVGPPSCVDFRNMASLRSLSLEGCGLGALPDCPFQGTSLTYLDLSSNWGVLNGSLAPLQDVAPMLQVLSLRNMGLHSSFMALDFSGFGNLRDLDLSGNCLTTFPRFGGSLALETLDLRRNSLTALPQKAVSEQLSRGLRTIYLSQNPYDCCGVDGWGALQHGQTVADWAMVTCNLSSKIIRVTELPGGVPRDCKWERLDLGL
From the text: as §1, §2, §3, §4, §5
B1 was tested, and the “(F) hLRRC33, Cell-associated proTGFb1 (KD)” value (from here on “(F) hLRRC33”) was 4.15E−10. In the case of B2, the “(F) hLRRC33” value is reported as 4.10E−10. With B3 the “(F) hLRRC33” value was 3.60E−10. B4 was tested, and the “(F) hLRRC33” value was 3.02E−10. In the case of B5, the “(F) hLRRC33” value is reported as 4.10E−10. B6 was tested, and the “(F) hLRRC33” value was 5.35E−10. With B7 the “(F) hLRRC33” value was 6.98E−10. B8 was tested, and the “(F) hLRRC33” value was 5.55E−10. With B9 the “(F) hLRRC33” value was 5.45E−10.

These molecules were tested against T3, recombinant human LTBP1-proTGFβ1 complex (Homo sapiens, UniProt P01137) in the same assay as above. Conditions: in M.
T3 construct: made in house; host or cells: Expi293F cells, transient co-transfection
T3 sequence (P01137 30-390): as the sequence (P01137 30-390) above
T3 sequence (Q14766 873-1507 partner): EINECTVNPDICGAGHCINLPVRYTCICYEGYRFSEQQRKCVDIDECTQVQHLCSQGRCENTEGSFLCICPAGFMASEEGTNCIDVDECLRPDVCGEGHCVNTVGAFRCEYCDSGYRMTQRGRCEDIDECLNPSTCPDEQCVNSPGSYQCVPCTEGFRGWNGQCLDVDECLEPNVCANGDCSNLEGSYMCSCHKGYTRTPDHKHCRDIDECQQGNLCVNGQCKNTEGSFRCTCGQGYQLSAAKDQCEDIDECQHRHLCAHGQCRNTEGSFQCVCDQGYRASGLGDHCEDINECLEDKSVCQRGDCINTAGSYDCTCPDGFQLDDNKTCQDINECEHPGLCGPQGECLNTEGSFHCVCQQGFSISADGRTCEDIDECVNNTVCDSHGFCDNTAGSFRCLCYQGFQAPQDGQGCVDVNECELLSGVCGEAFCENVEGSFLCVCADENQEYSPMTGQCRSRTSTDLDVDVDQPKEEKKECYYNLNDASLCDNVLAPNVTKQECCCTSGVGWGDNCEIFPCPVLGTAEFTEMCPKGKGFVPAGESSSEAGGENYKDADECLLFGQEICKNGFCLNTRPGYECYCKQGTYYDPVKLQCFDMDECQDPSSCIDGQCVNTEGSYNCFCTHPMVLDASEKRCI
From the text: as §1, §2, §3, §4, §5
With B1 the “(B) hLTBP1, Matrix-associated proTGFb1 (KD)” value (from here on “(B) hLTBP1”) was 3.18E−10. With B2 the “(B) hLTBP1” value was 2.36E−10. With B3 the “(B) hLTBP1” value was 2.21E−10. B4 was tested, and the “(B) hLTBP1” value was 1.89E−10. In the case of B5, the “(B) hLTBP1” value is reported as 2.46E−10. B6 was tested, and the “(B) hLTBP1” value was 3.32E−10. B7 was tested, and the “(B) hLTBP1” value was 2.69E−10. In the case of B8, the “(B) hLTBP1” value is reported as 1.67E−10. With B9 the “(B) hLTBP1” value was 1.92E−10.

The molecules below were run against T4, recombinant human LTBP3-proTGFβ1 complex (Homo sapiens, UniProt P01137) in the same assay as above. Conditions: in M.
T4 construct: made in house; host or cells: Expi293F cells, transient co-transfection
T4 sequence (P01137 30-390): as the sequence (P01137 30-390) above
T4 sequence (Q9NS15 866-1039 partner limits assumed): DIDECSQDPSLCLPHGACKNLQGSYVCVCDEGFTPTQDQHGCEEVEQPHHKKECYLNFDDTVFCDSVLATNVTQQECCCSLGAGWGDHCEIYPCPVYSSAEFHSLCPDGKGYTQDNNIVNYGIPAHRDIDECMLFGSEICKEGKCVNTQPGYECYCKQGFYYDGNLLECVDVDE
From the text: as §1, §2, §3, §4, §5
In the case of B1, the “(C) hLTBP3, Matrix-associated proTGFb1 (KD)” value (“(C) hLTBP3” for short) is reported as 3.29E−10. B2 was tested, and the “(C) hLTBP3” value was 1.81E−10. With B3 the “(C) hLTBP3” value was 1.73E−10. With B4 the “(C) hLTBP3” value was 1.21E−10. With B5 the “(C) hLTBP3” value was 1.98E−10. B6 was tested, and the “(C) hLTBP3” value was 2.61E−10. B7 was tested, and the “(C) hLTBP3” value was 2.15E−10. For B8, the “(C) hLTBP3” value was 1.54E−10. B9 was tested, and the “(C) hLTBP3” value was 1.31E−10.

These molecules were tested on matrix-associated (LTBP1/LTBP3) and cell-associated (GARP/LRRC33) proTGFβ1 complexes (assay: Octet: average KD and fold bias, matrix- vs cell-associated complexes). Conditions: average KD of (E) and (F), cell-associated complexes, read-out: (G) Cell AVRG.
Assay type: binding, human
From the text: Column (A) of the table lists monoclonal antibodies with discrete amino acid sequences. […] Columns (B), (D), (E) and (F) provide affinities of each of the listed antibodies, measured in KD. […] Average KD values of (B) and (C) are shown in the corresponding column (D), which collectively represents affinities of the antibodies to ECM- or matrix-associated proTGFβ1 complexes. Similarly, Average KD values of (E) and (F) are shown in the corresponding column (G), which collectively represents affinities of the antibodies to cell-surface or cell-associated proTGFβ1 complexes. Finally, relative ratios between the average KD values from columns (D) and (G) are expressed as “fold bias” in column (H). […] This is one way of quantitatively representing and comparing inherent bias of antibodies to their target complexes.
Average KD values between the two matrix-associated and cell-associated complexes are calculated, respectively (see columns (D) and (G)). These average KD values can then be used to ask whether bias in binding activities exists between complexes associated with matrix vs. complexes associated with cell surface (e.g., immune cells). Bias may be expressed as “fold-difference” in the average KD values, as illustrated in Table 8.
B1 was tested, and the Kd was 0.695 nM. With B2 the Kd was 0.495 nM. In the case of B3, the Kd is reported as 0.492 nM. B4 was tested, and the Kd was 0.304 nM. For B5, the Kd was 0.537 nM. In the case of B6, the Kd is reported as 0.684 nM. Work on B7 yielded a Kd of 0.597 nM. B8 was tested, and the Kd was 0.699 nM. With B9 the Kd was 0.715 nM.

Same assay, conditions: ratio of average KD cell-associated / matrix-associated
B1 was tested, and the “(H) G/D (fold bias)” value was 2.147 fold. In the case of B2, the “(H) G/D (fold bias)” value is reported as 2.376 fold. B3 was tested, and the “(H) G/D (fold bias)” value was 2.500 fold. With B4 the “(H) G/D (fold bias)” value was 1.965 fold. In the case of B5, the “(H) G/D (fold bias)” value is reported as 2.421 fold. B6 was tested, and the “(H) G/D (fold bias)” value was 2.307 fold. B7 was tested, and the “(H) G/D (fold bias)” value was 2.467 fold. B8 was tested, and the “(H) G/D (fold bias)” value was 4.352 fold. In the case of B9, the “(H) G/D (fold bias)” value is reported as 4.424 fold.

These molecules were tested on matrix-associated (LTBP1/LTBP3) and cell-associated (GARP/LRRC33) proTGFβ1 complexes in the same assay as above. Conditions: average KD of (B) and (C), read-out: (D) ECM AVRG.
Assay type: binding, human
Molecule B1 has a Kd of 0.324 nM. Molecule B2 has a Kd of 0.208 nM. In the case of B3, the Kd is reported as 0.197 nM. Work on B4 yielded a Kd of 0.155 nM. Work on B5 yielded a Kd of 0.222 nM. B6 gave a Kd of 0.296 nM. In the case of B7, the Kd is reported as 0.242 nM. Work on B8 yielded a Kd of 0.161 nM. In the case of B9, the Kd is reported as 0.162 nM.
